In patent publication US20250092108A1 (Xencor, published 2025):
Residue numbers refer to the chain shown, from its start. Each block holds one binder with its values, some of them ahead of it.

Biological target: T1, IL-2 receptors (high-affinity IL-2Rαβγ or intermediate-affinity IL-2Rβγ) on PBMC lymphocytes (UniProt P01589 22-272; P14784 27-551; P31785 23-369, limits assumed)
T1 sequence (looked up) 1: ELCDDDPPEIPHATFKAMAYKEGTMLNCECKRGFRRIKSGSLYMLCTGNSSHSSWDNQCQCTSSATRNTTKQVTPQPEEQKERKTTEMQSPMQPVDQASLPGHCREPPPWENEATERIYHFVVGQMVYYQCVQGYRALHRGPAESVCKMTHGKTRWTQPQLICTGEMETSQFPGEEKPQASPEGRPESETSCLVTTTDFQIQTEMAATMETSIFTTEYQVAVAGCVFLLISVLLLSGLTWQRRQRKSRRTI
T1 sequence (looked up) 2: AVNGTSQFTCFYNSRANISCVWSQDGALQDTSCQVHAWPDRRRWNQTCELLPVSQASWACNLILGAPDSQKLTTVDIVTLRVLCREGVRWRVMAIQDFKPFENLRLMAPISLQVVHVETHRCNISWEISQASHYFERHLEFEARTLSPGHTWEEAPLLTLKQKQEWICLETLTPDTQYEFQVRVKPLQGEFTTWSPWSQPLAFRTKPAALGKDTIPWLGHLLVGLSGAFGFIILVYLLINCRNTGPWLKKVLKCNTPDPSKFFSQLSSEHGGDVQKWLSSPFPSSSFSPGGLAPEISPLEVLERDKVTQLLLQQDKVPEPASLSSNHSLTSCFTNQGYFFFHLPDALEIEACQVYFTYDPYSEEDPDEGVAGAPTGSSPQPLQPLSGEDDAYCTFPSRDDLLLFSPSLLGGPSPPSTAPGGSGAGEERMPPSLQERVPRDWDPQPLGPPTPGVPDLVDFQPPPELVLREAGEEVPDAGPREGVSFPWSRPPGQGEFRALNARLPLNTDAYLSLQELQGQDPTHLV
T1 sequence (looked up) 3: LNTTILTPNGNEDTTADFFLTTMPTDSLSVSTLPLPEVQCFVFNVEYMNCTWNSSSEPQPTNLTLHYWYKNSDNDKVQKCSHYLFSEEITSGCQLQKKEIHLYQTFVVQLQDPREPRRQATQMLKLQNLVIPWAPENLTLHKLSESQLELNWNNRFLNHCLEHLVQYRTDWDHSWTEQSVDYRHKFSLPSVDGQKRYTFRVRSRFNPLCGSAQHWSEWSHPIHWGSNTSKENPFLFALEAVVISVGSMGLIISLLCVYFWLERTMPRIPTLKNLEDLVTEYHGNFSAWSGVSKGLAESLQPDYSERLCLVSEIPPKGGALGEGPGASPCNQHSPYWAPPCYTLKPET
Experiment: cell-based or functional assay

EC50, induction of STAT5 phosphorylation (in vitro potency): 1 nM
B1: XENP26105 (Fc fusion)
chain 1: EPKSSDKTHTCPPCPAPPVAGPSVFLFPPKPKDTLMISRTPEVTCVVVDVKHEDPEVKFNWYVDGVEVHNAKTKPREEEYNSTYRVVSVLTVLHQDWLNGKEYKCKVSNKALPAPIEKTISKAKGQPREPQVYTLPPSREEMTKNQVSLTCDVSGFYPSDIAVEWESDGQPENNYKTTPPVLDSDGSFFLYSKLTVDKSRWEQGDVFSCSVMHEALHNHYTQKSLSLSPGK
chain 2: APASSSTKKTQLQLEHLLLNLQMILNGINNYKNPKLRRMLTFKFYMPKKATELKHLQCLEEELKPLEEVLNLAQSKNFHLRPRDLISNINVIVLELKGSETTFMCEYADETATIVEFLNRWITFSQSIISTLTEPKSSDKTHTCPPCPAPPVAGPSVFLFPPKPKDTLMISRTPEVTCVVVDVKHEDPEVKFNWYVDGVEVHNAKTKPREEQYNSTYRVVSVLTVLHQDWLNGKEYKCKVSNKALPAPIEKTISKAKGQPREPQVYTLPPSREQMTKNQVKLTCLVKGFYPSDIAVEWESNGQPENNYKTTPPVLDSDGSFFLYSKLTVDKSRWQQGNVFSCSVMHEALHNHYTQKSLSLSPGK

EC50, induction of STAT5 phosphorylation (in vitro potency): 5 nM
B2: XENP26109 (Fc fusion)
chain 1: B1 chain 1
chain 2: B1 chain 2 with R37T, N71K
